# Assay results published in article PMC10644352, “Bromodomain Factor 5 as a Target for Antileishmanial Drug Discovery” (ACS Infectious Diseases, 2023).
# No end group written: not given here.
# Key:
# [1] = target: T1, Leishmania donovani bromodomain factor 5 (LdBDF5) first bromodomain, recombinant BD5.1 (Leishmania donovani); test: fluorescence polarisation; 800 nM 5-FAM peptide, protein 0-300 μM; 20 mM HEPES, 500 mM NaCl, 1 mg/mL BSA, pH 7.5; 30 min at room temperature; one-site-specific binding fit (two-site for BD5T); n = 3; conditions: both partners purified
# T1 construct: L. donovani BDF5 (LDBPK_091320), construct with the first bromodomain; Plasmid from the Structural Genomics Consortium, pET-15-MHL backbone (Addgene plasmid #26092), which encodes a cleavable His-tag; His-tags were not cleaved for BD5.1; Expected mass 15.2 kDa; Monomer by SEC-MALLS; also called LdBDF5 BD5.1; LdBDF5.1; source: E. coli Rosetta2 (DE3) pLysS, purified (IMAC, SEC)
# [2] = target: T2, Leishmania donovani bromodomain factor 5 (LdBDF5) second bromodomain, recombinant BD5.2 (Leishmania donovani); test: as above; conditions: both partners purified
# T2 construct: L. donovani BDF5 (LDBPK_091320), construct with the second bromodomain; His-tags were not cleaved for BD5.2; Expected mass 17.9 kDa; Monomer by SEC-MALLS; also called LdBDF5 BD5.2; source: E. coli Rosetta2 (DE3) pLysS, purified (IMAC, SEC)
binder,measurement,setting,value
AK(Ac)GK(Ac)RSADAK(Ac)SSQK(Ac)R (also: 5-FAM at N-terminus or via ethylene diamine linker at C-terminus) [5-FAM-labeled H4(1-15)K2Ac K4Ac K10Ac K14Ac peptide of L. donovani histone H4],Kd,[1],137 µM
same,Kd,[2],353 µM
